Values quoted from earlier work as cited in PMC8442009.
pKd: −log10 of the molar value.

Experiments:
[1] = biological target: γc (Homo sapiens) (UniProt P31785)
[2] = biological target: IL-4Rα/γc (Homo sapiens) (UniProt P24394)
[3] = biological target: IL-4Rα (Homo sapiens) (UniProt P24394)

Chain of UniProt P31785 (P31785 23-262): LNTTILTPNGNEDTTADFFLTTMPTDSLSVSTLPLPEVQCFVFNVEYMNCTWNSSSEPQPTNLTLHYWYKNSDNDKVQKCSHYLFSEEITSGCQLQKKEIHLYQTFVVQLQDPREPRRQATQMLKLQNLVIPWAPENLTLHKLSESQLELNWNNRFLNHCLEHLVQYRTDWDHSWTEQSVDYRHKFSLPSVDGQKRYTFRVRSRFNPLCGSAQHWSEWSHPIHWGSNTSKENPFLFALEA

| pKd [1] | pKd [2] | pKd [3] | Substance |
| --- | --- | --- | --- |
| < 6.30 | – | – | IL-4-IL-4Rα (from UniProt P05112) |
| – | 10.10 | 9.58 | IL-4 (from UniProt P05112) |
